Measured values taken from US20180140737A1, “HAEMOSTATIC MATERIAL” (HAEMOSTATIX LIMITED, priority 2015, published 2018).

Tests used:
fibrinogen [1] = biological target: T1, fibrinogen (Homo sapiens, UniProt P02675+P02679); conditions: cited from earlier work
T1 sequence (P02679 27-453): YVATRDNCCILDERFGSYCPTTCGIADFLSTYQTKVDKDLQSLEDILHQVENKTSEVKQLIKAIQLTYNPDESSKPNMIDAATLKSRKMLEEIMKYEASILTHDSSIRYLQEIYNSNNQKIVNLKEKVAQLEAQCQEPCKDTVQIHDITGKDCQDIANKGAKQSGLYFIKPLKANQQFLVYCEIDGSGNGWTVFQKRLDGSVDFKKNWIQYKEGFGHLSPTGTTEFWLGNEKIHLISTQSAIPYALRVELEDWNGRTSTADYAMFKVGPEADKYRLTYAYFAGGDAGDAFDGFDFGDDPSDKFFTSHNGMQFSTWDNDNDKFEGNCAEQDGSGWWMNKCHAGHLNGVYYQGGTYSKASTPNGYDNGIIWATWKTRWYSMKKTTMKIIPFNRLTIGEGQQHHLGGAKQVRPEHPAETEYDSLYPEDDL
T1 sequence (P02675 31-491): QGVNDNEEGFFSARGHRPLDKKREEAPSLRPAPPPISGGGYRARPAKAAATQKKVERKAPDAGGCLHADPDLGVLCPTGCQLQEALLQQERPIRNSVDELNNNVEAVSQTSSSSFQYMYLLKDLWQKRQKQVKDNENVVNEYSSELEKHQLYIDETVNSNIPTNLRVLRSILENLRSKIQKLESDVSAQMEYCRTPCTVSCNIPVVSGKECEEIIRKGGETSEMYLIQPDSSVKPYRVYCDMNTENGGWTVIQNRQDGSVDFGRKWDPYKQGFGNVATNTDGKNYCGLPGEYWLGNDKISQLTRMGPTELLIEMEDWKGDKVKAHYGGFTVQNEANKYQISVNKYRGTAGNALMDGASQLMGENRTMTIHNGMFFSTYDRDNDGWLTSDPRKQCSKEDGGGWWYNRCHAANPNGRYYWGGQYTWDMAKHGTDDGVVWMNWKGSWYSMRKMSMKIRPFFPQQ
T1 sequence (P02671 20-629 partner limits assumed): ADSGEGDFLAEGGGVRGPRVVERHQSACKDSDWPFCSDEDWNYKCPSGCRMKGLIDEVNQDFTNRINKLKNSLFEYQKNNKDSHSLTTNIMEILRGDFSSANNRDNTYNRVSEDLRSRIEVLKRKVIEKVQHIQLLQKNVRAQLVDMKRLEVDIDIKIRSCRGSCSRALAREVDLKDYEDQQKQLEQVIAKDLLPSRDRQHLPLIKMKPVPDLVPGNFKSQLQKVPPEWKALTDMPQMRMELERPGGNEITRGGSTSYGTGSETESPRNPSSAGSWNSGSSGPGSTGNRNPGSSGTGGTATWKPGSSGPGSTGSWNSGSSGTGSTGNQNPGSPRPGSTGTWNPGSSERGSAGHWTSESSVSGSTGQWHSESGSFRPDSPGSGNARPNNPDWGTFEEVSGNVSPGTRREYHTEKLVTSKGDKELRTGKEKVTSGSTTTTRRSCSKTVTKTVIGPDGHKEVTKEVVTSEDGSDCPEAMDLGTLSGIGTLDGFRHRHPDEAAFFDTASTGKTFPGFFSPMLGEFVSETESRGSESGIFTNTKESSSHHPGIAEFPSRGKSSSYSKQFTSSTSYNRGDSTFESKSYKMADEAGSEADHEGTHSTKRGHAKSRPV

[2] = biological target: T2, purified human fibrinogen (Homo sapiens, UniProt P02675+P02679); assay: Co-polymerisation with purified human fibrinogen, clotting time (Sigma Amelung KC4 Delta coagulation analyser); assay type: biochemical
T2 sequence (P02679 27-453): T1 sequence (P02679 27-453)
T2 sequence (P02675 31-491): T1 sequence (P02675 31-491)
T2 sequence (P02671 20-629 partner limits assumed): T1 sequence (P02671 20-629 partner limits assumed)
Experimental: The ability of Peptide Dendrimer No. 12 to polymerise fibrinogen was assessed. 30 μl of dendrimer in solution, at concentration ranging from 0.005-2 mg/ml, was added to 100 μl purified human fibrinogen at 3 mg/ml (the level of fibrinogen found in the blood). Polymerisation of fibrinogen was analysed using a Sigma Amelung KC4 Delta coagulation analyser.
The ability of Peptide Dendrimer Nos. 4, 5, 10, 11, and 12 to copolymerise with fibrinogen was assessed using the same method described in Example 11. The concentration of each dendrimer was varied from 0.005-0.5 mg/ml.
The ability of the dendrimers to copolymerise with fibrinogen was assessed using the same method described in Example 11, for a concentration of each dendrimer ranging from 0.005-0.5mg/ml.
The ability of the dendrimers to copolymerise with fibrinogen was assessed using the same method described in Example 11, for a concentration of each dendrimer ranging from 0.005-0.5 mg/ml.
Peptide Conjugate No. 1 or 2 (2 mg/ml) was mixed with Peptide Dendrimer No. 3 or 4, and fibrinogen, and the ability of the mixtures to copolymerise with fibrinogen was assessed using the same method described in Example 11, for a concentration of each dendrimer ranging from 0.025-0.5 mg/ml.

[3] = biological target: T3, fibrinogen in human plasma (Homo sapiens, UniProt P02675+P02679); assay: Polymerisation of fibrinogen in human plasma (KC4 Delta coagulation analyzer); assay type: biochemical; conditions: 30 μL dendrimer 0.25 mg/ml added to 100 μL human plasma, 37° C
T3 construct: from tissue; host or cells: human plasma
T3 sequence (P02679 27-453): T1 sequence (P02679 27-453)
T3 sequence (P02675 31-491): T1 sequence (P02675 31-491)
T3 sequence (P02671 20-629 partner limits assumed): T1 sequence (P02671 20-629 partner limits assumed)
Experimental: The ability of several different peptide dendrimers (Nos. 4, 5, 8, 9, 10, 11, 12, 13) to polymerise fibrinogen in human plasma was tested.
30 μL of each dendrimer (at a concentration of 0.25 mg/ml) was added to 100 μL human plasma at 37° C., and polymerisation of fibrinogen was determined using a Sigma Amelung KC4 Delta coagulation analyzer.

fibrinogen [4] = biological target: T1, fibrinogen; assay: Clotting activity of dendrimer extracted from gamma-irradiated gelatin paste; assay type: biochemical; conditions: paste with SURGIFLO, extract about 0.25 mg/ml, fibrinogen 3 mg/ml, 37° C
Experimental: 2 ml of solution of Peptide Dendrimer No. 12 or 13 was mixed with SURGIFLO Haemostatic Matrix (a hydrated flowable gelatin matrix) to form a paste of each peptide. Each paste was sterilised by irradiation with ^60Co gamma rays at a dose of 30 kGy, and then stored at room temperature. Samples of the sterilised pastes were used for testing after storage for two and four weeks.
After storage, peptide dendrimers were extracted from each paste using 10 mM HEPES buffer. 30 μL of each extract (with a peptide concentration of about 0.25 mg/ml) was added to 100 μL of human fibrinogen at 3 mg/ml, and the ability of each dendrimer to polymerise fibrinogen (the ‘clotting’ activity) at 37° C. was determined using a Sigma Amelung KC4 Delta coagulation analyser. The polymerisation activity of non-irradiated control samples was also determined.

GPRP
binding preference for hole 'a' / hole 'b' of fibrinogen (fibrinogen [1]): binds strongly and preferentially to the ‘a’ hole of fibrinogen

GPRPG
binding preference for hole 'a' / hole 'b' of fibrinogen (fibrinogen [1]): binds to hole ‘a’ and hole ‘b’ of fibrinogen, but with some preference for hole ‘a’

Peptide Dendrimer No. 12 (peptide GPRPG; chain KKKKK)
ability to copolymerise with fibrinogen ([2]; dendrimer 0.005-2 mg/ml, fibrinogen 3 mg/ml): able to copolymerise with fibrinogen almost instantaneously | clotting ([2]; dendrimer in the range ~0.02-0.5 mg/ml): almost instantaneous clotting | ability to polymerise fibrinogen in human plasma [3]: able to polymerise fibrinogen in human plasma | clotting time [3]: less than one second | Clotting activity (seconds), Storage for 2 weeks post irradiation (fibrinogen [4]; 30 kGy gamma, 2 weeks room temperature): 1 s | Clotting activity (seconds), Storage for 4 weeks post irradiation (fibrinogen [4]; 30 kGy gamma, 4 weeks room temperature): 1 s | Clotting activity (seconds), Non-irradiated control (fibrinogen [4]; not irradiated): 1 s

GPRPFPA
binding preference for hole 'a' / hole 'b' of fibrinogen (fibrinogen [1]): binds with high preference for hole ‘a’ in fibrinogen

GHRPY
binding preference for hole 'a' / hole 'b' of fibrinogen (fibrinogen [1]): binds strongly and preferentially to the ‘b’ hole of fibrinogen
